[ ]: non-standard residue; d: D form. dPhe(4-Cl) = N[C@H](Cc1ccc(Cl)cc1)C(=O)O; d2Nal = N[C@H](Cc1ccc2ccccc2c1)C(=O)O; dCit = NC(=O)NCCC[C@@H](N)C(=O)O; d3Pal = N[C@H](Cc1cccnc1)C(=O)O; pGlu = O=C1CC[C@@H](C(=O)O)N1
T1: rat GnRHR (rat, UniProt P30969 1-327)
T1 sequence (looked up): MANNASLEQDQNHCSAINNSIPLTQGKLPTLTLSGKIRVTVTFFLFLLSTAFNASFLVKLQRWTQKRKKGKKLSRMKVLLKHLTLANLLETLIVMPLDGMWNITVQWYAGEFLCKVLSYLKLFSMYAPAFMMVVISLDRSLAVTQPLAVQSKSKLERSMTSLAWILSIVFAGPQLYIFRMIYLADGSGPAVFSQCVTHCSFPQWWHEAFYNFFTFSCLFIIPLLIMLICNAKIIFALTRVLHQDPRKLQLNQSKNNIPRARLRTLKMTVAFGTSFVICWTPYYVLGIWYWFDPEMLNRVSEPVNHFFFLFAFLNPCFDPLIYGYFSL


Key:
rat GnRHR [1] = target: T1, rat GnRHR; assay: cell-based or functional assay
bfGnRHR-1 [2] = target: bfGnRHR-1 (bullfrog); assay: cell-based or functional assay
bfGnRHR-2 [3] = target: bfGnRHR-2 (bullfrog); assay: cell-based or functional assay
bfGnRHR-3 [4] = target: bfGnRHR-3 (bullfrog); assay: cell-based or functional assay
rat GnRHR [5] = target: T1, rat GnRHR; assay: cell-based or functional assay; remark: listed apart in the source
Primate GnRH-2 receptor [6] = target: T2, Primate GnRH-2 receptor (Primate (from a CV-1 cell genome)); assay: cell-based or functional assay
bfGnRHR-3 [7] = target: T3, bfGnRHR-3 (bullfrog); assay: displacement of I^125-GnRH-2 from membranes of GH3 cells expressing bfGnRHR-3
T3 construct: whole, on cells; also called bullfrog GnRH receptor 3; bfGnRH receptor
Protocol: (§1) After 48 hours, the cells were homogenized to obtain cellular membranes, which were then dissolved in binding buffer (40 mM Tris, pH 7.4, 2 mM MgCl₂).

rat GnRHR [8] = target: T1, rat GnRHR; assay: displacement of I^125-GnRH-2 from membranes of GH3 cells expressing rat GnRHR
Protocol: as §1

bfGnRHR-2 [9] = target: bfGnRHR-2 (bullfrog); assay: cell-based or functional assay; remark: listed apart in the source
bfGnRHR-2 [10] = target: bfGnRHR-2 (bullfrog); assay: cell-based or functional assay; remark: listed apart in the source
Primate GnRH-2 receptor [11] = target: T2, Primate GnRH-2 receptor; assay: cell-based or functional assay; remark: listed apart in the source
bfGnRHR-1 [12] = target: bfGnRHR-1 (bullfrog); assay: cell-based or functional assay; remark: listed apart in the source

Binder | Log EC50, inositol phosphate production in GH3 cells expressing the receptor (bfGnRHR-1 [2]) | Log EC50, inositol phosphate production in GH3 cells expressing the receptor (bfGnRHR-2 [3]) | Log EC50, inositol phosphate production in GH3 cells expressing the receptor (bfGnRHR-3 [4]) | Emax (fold-induction), luciferase activation (Primate GnRH-2 receptor [6]) | Ratio^a (EC50 relative to the EC50 of GnRH-2), luciferase activation (Primate GnRH-2 receptor [6]) | log IC50 (bfGnRHR-3 [7]) | also measured
[pGlu]HWSHGWYPG-NH2 (also: I-125 radiolabelled form used as tracer, Purchased from Sigma Co; also called gonadotropin-releasing hormone-2; cGnRH-II) [GnRH-2] | -9.41 log EC50 (concentration unit not printed) | -8.98 log EC50 (concentration unit not printed) | -9.51 log EC50 (concentration unit not printed) | 11.7 fold-induction | 1 ratio to GnRH-2 | -8.63 log IC50 (concentration unit not printed) | inositol phosphate production, sensitivity compared with GnRH-1 (rat GnRHR [1]): 10 fold lower sensitivity than GnRH-1; Log EC50, inositol phosphate production in GH3 cells expressing the receptor (rat GnRHR [5]): -8.06 log EC50 (concentration unit not printed); log IC50 (rat GnRHR [8]): -6.08 log IC50 (concentration unit not printed)
[pGlu]HWSH[dW]WYPG-NH2 (SMILES NC(=O)CNC(=O)[C@@H]1CCCN1C(=O)[C@H](Cc1ccc(O)cc1)NC(=O)[C@H](Cc1c[nH]c2ccccc12)NC(=O)[C@@H](Cc1c[nH]c2ccccc12)NC(=O)[C@H](Cc1c[nH]cn1)NC(=O)[C@H](CO)NC(=O)[C@H](Cc1c[nH]c2ccccc12)NC(=O)[C@H](Cc1c[nH]cn1)NC(=O)[C@@H]1CCC(=O)N1) [[D-Trp^6]GnRH-2] | -9.4 log EC50 (concentration unit not printed) | -9.21 log EC50 (concentration unit not printed) | -9.22 log EC50 (concentration unit not printed) | 11.2 fold-induction | 1.2 ratio to GnRH-2 | -8.1 log IC50 (concentration unit not printed) | Log EC50, inositol phosphate production in GH3 cells expressing the receptor (rat GnRHR [5]): -7.92 log EC50 (concentration unit not printed); log IC50 (rat GnRHR [8]): -7.01 log IC50 (concentration unit not printed)
[pGlu]HWSH[dA]YWPG-NH2 (SMILES C[C@@H](NC(=O)[C@H](Cc1c[nH]cn1)NC(=O)[C@H](CO)NC(=O)[C@H](Cc1c[nH]c2ccccc12)NC(=O)[C@H](Cc1c[nH]cn1)NC(=O)[C@@H]1CCC(=O)N1)C(=O)N[C@@H](Cc1ccc(O)cc1)C(=O)N[C@@H](Cc1c[nH]c2ccccc12)C(=O)N1CCC[C@H]1C(=O)NCC(N)=O) [[D-Ala^6, Tyr^7, Trp^8]GnRH-2] |  |  |  | 12.8 fold-induction | 6.61 ratio to GnRH-2 |  | 
[pGlu]HWSH[dA]LYPG-NH2 (SMILES CC(C)C[C@H](NC(=O)[C@@H](C)NC(=O)[C@H](Cc1c[nH]cn1)NC(=O)[C@H](CO)NC(=O)[C@H](Cc1c[nH]c2ccccc12)NC(=O)[C@H](Cc1c[nH]cn1)NC(=O)[C@@H]1CCC(=O)N1)C(=O)N[C@@H](Cc1ccc(O)cc1)C(=O)N1CCC[C@H]1C(=O)NCC(N)=O) [[D-Ala^6, Leu^7]GnRH-2] |  |  |  | 9.04 fold-induction | 2.51 ratio to GnRH-2 |  | 
Ac-[d2Nal][dPhe(4-Cl)][d3Pal]SY[dCit]WYP[dA]-NH2 [Trptorelix-1] |  |  |  |  |  |  | inhibition of GnRH-2-induced IP production, sensitivity compared with Cetrorelix (bfGnRHR-2 [9]): 100 fold more sensitive than Cetrorelix; Log IC50, inhibition of GnRH-2-induced inositol phosphate production in GH3 cells expressing the receptor (bfGnRHR-2 [10]): -8.1 log IC50 (concentration unit not printed); Log IC50, inhibition of GnRH-2-induced c-fos-luc luciferase activity (Primate GnRH-2 receptor [11]): -5.74 log IC50 (concentration unit not printed)
[pGlu]HWSY[dA]WLPG-NH2 (SMILES CC(C)C[C@H](NC(=O)[C@H](Cc1c[nH]c2ccccc12)NC(=O)[C@@H](C)NC(=O)[C@H](Cc1ccc(O)cc1)NC(=O)[C@H](CO)NC(=O)[C@H](Cc1c[nH]c2ccccc12)NC(=O)[C@H](Cc1c[nH]cn1)NC(=O)[C@@H]1CCC(=O)N1)C(=O)N1CCC[C@H]1C(=O)NCC(N)=O) [[Tyr^5, D-Ala^6, Leu^8]GnRH-2] |  |  |  | 7.35 fold-induction | 3.01 ratio to GnRH-2 |  | 
Ac-[d2Nal][dPhe(4-Cl)][d3Pal]SY[dCit]LRP[dA]-NH2 [Cetrorelix] |  |  |  |  |  |  | Log IC50, inhibition of GnRH-2-induced inositol phosphate production in GH3 cells expressing the receptor (bfGnRHR-2 [10]): -6.43 log IC50 (concentration unit not printed)
[pGlu]HWSH[dK]WYPG-NH2 (SMILES NCCCC[C@@H](NC(=O)[C@H](Cc1c[nH]cn1)NC(=O)[C@H](CO)NC(=O)[C@H](Cc1c[nH]c2ccccc12)NC(=O)[C@H](Cc1c[nH]cn1)NC(=O)[C@@H]1CCC(=O)N1)C(=O)N[C@@H](Cc1c[nH]c2ccccc12)C(=O)N[C@@H](Cc1ccc(O)cc1)C(=O)N1CCC[C@H]1C(=O)NCC(N)=O) [[D-Lys^6]GnRH-2] |  |  |  | 11.7 fold-induction | 0.66 ratio to GnRH-2 |  | 
Ac-[d2Nal][dPhe(4-Cl)][d3Pal]SH[dCit]WYP[dA]-NH2 (SMILES CC(=O)N[C@H](Cc1ccc2ccccc2c1)C(=O)N[C@H](Cc1ccc(Cl)cc1)C(=O)N[C@H](Cc1cccnc1)C(=O)N[C@@H](CO)C(=O)N[C@@H](Cc1c[nH]cn1)C(=O)N[C@H](CCCNC(N)=O)C(=O)N[C@@H](Cc1c[nH]c2ccccc12)C(=O)N[C@@H](Cc1ccc(O)cc1)C(=O)N1CCC[C@H]1C(=O)N[C@H](C)C(N)=O) [Trptorelix-2] |  |  |  |  |  |  | Log IC50, inhibition of GnRH-2-induced c-fos-luc luciferase activity (Primate GnRH-2 receptor [11]): -6.19 log IC50 (concentration unit not printed)
[pGlu]HWSL[dA]WYPG-NH2 (SMILES CC(C)C[C@H](NC(=O)[C@H](CO)NC(=O)[C@H](Cc1c[nH]c2ccccc12)NC(=O)[C@H](Cc1c[nH]cn1)NC(=O)[C@@H]1CCC(=O)N1)C(=O)N[C@H](C)C(=O)N[C@@H](Cc1c[nH]c2ccccc12)C(=O)N[C@@H](Cc1ccc(O)cc1)C(=O)N1CCC[C@H]1C(=O)NCC(N)=O) [[Leu^5, D-Ala^6]GnRH-2] |  |  |  | 6.22 fold-induction | 11 ratio to GnRH-2 |  | 
[pGlu]HWSH[dA]WYPG-NH2 (SMILES C[C@@H](NC(=O)[C@H](Cc1c[nH]cn1)NC(=O)[C@H](CO)NC(=O)[C@H](Cc1c[nH]c2ccccc12)NC(=O)[C@H](Cc1c[nH]cn1)NC(=O)[C@@H]1CCC(=O)N1)C(=O)N[C@@H](Cc1c[nH]c2ccccc12)C(=O)N[C@@H](Cc1ccc(O)cc1)C(=O)N1CCC[C@H]1C(=O)NCC(N)=O, Chemically synthesised by AnyGen Co) [[D-Ala^6]GnRH-2] | -9.91 log EC50 (concentration unit not printed) | -9.91 log EC50 (concentration unit not printed) | -9.89 log EC50 (concentration unit not printed) | 11.8 fold-induction | 0.38 ratio to GnRH-2 | -9.83 log IC50 (concentration unit not printed) | inositol phosphate production, concentration needed compared with GnRH-2 (bfGnRHR-1 [12]): ~8 fold lower concentration than GnRH-2; inositol phosphate production, sensitivity compared with GnRH-1 (rat GnRHR [1]): 10 fold lower sensitivity than GnRH-1; Log EC50, inositol phosphate production in GH3 cells expressing the receptor (rat GnRHR [5]): -8.49 log EC50 (concentration unit not printed); log IC50 (rat GnRHR [8]): -6.85 log IC50 (concentration unit not printed)
EHWSYGLRPG (pyroGlu at 1; C-terminal amide (GlyNH2); radiolabelled with I^125 where used as tracer in Example 4, also called mGnRH; mammalian GnRH) [GnRH-1] | -8.52 log EC50 (concentration unit not printed) | -5.59 log EC50 (concentration unit not printed) | -8.42 log EC50 (concentration unit not printed) |  |  | -7.32 log IC50 (concentration unit not printed) | inositol phosphate production, concentration needed compared with GnRH-2 (bfGnRHR-2 [9]): ~1000 fold higher concentration than GnRH-2

— patent US20060135432A1 (NEUROGENEX, published 2006)
